How the values were obtained:
[1] = substrate: NC(=O)C1=CN([C@@H]2O[C@H](COP(=O)(O)OP(=O)(O)OC[C@H]3O[C@@H](n4cnc5c(N)ncnc54)[C@H](OP(=O)(O)O)[C@@H]3O)[C@@H](O)[C@H]2O)C=CC1; test: purified protein; format: biochemical, Escherichia coli; conditions: FMN; pH 7.0; 25.0 °C
[2] = substrate: NC(=O)N/N=C/c1ccc([N+](=O)[O-])o1; test: purified protein; format: biochemical, Escherichia coli; conditions: FMN; pH 7.0; 25.0 °C

B1: NfsA (Escherichia coli K-12) (protein)
chain: MTPTIELICGHRSIRHFTDEPISEAQREAIINSARATSSSSFLQCSSIIRITDKALREELVTLTGGQKHVAQAAEFWVFCADFNRHLQICPDAQLGLAEQLLLGVVDTAMMAQNALIAAESLGLGGVYIGGLRNNIEAVTKLLKLPQHVLPLFGLCLGWPADNPDLKPRLPASILVHENSYQPLDKGALAQYDEQLAEYYLTRGSNNRRDTWSDHIRRTIIKESRPFILDYLHKQGWATR
notes: untagged full-length
Protein B1 has a Km [1] of 29 ± 6 µM, a kcat [1] of 25 ± 2 s⁻¹ and a kcat/Km [1] of 860000 ± 100000 M⁻¹ s⁻¹. For the same protein, the Km [2] was 27 ± 6 µM, the kcat [2] was 25 ± 2 s⁻¹ and the kcat/Km [2] was 930000 ± 100000 M⁻¹ s⁻¹.

Reference: publication PMC10953011, “Oxygen‐insensitive nitroreductase E. coli NfsA, but not NfsB, is inhibited by fumarate” (Proteins, 2022)
